From article PMC12749748 (Nature Communications, 2025)

Target: the molecule itself
Assay: cryo-EM structure; IRE1:G6374:VCB complex purified by SEC, cross-linked with 500 µM BS3, 0.005% CTAB added; map at ~2.6 Å

B1: Recombinant human IRE1.KR (G547-L977) (domain or fragment, UniProt O75460 547-977, looked up)
chain: GSSPSLEQDDGDEETSVVIVGKISFCPKDVLGHGAEGTIVYRGMFDNRDVAVKRILPECFSFADREVQLLRESDEHPNVIRYFCTEKDRQFQYIAIELCAATLQEYVEQKDFAHLGLEPITLLQQTTSGLAHLHSLNIVHRDLKPHNILISMPNAHGKIKAMISDFGLCKKLAVGRHSFSRRSGVPGTEGWIAPEMLSEDCKENPTYTVDIFSAGCVFYYVISEGSHPFGKSLQRQANILLGACSLDCLHPEKHEDVIARELIEKMIAMDPQKRPSAKHVLKHPFFWSLEKQLQFFQDVSDRIEKESLDGPIVKQLERGGRAVVKMDWRENITVPLQTDLRKFRTYKGGSVRDLLRAMRNKKHHYRELPAEVRETLGSLPDDFVCYFTSRFPHLLAHTYRAMELCSHERLFQPYYFHEPPEPQPPVTPDAL
  stoichiometry N: 2
